# From a protein production outcome set (Wang et al. 2014)
# Experiment: label from the status in PepcDB records
row,Sequence,protein production
1,MDIFQLQGLFLVLSAILGYFLHNRLSVRIVSFVNNWINLPLIFLVTYLQRGFEVSDAKIFLTSVIYNFLMFVIVLYLTREIEPFSRGSVLINSIFMNTINLPFSILLAFRGNYEISATVAVAMATLRLPIVMIIFTYLNKGISVIHNTTNNSIIRTNLSRYLPVITFLIGGSLHYVVGSVINVDIVNTINLILILIVLYEFGYQIRRVIGEMRIKDVTSKPYMIIYISRILISPILIFLILISLGITSKIIIEQVMVTAIMAPAITNVVWARVYGFGTEIIVKSTLILTPISTIIAIIFLILY,failed
2,MDIIRKISHFAGQTFGIWVIVFAVLGFSFPSLFTWISSYITIFLGIIMFGMGLTLQADDFKELVRKPWQVIIGVIAQYTIMPLVAFGLAFGLHLPAEIAVGVILVGCCPGGTASNVMTFLAKGNTALSVAVTTISTLLAPVVTPLLIMLFAKEWLPVSPGSLFISILQAVLFPIIAGLIVKMFFRKQVAKAVHALPLVSVIGIVAIVSAVVSGNRENLLQSGLLIFSVVILHNGIGYLLGFLCAKLLKMDYPSQKAIAIEVGMQNSGLGAALATAHFSPLSAVPSAIFSVWHNLSGSMLATYWSKKVKKKQAGSKSSNLSL,failed
3,MDIKNGLFIIGVIPTILFAVLTFIFWWKIRKLKDLRTLRLGRLSFFALLFLWITINGIIGSGLVLTELHQNVLLLLLIAEAVVMFLIIPMIIGIIVPISIVVLTIKMWRRESKSIGNLLLAIVVLTFLVVDWIHLSMGRLPDSWIWLKILGMVYPILSIYLAWQFGIFFLSSWVYGRRVRKQRANYYVVLGAGLIQGEHVGKLLGNRILAAVKAVRDNETILVFSGGQGPDEKVSEARAMQRYAVEVLGFPIERTMLEDQSRTTYENLFFSSQLIREKFLFFTSDYHVFRAALFAAMLKLEAQGGKGGKTAMYYRVPAFIREFIAVLNYEKKKHMIRVGIIVAIFLSIAIVSQIGYFWNQR,failed
4,MDIKYKFPFALIIASAALVGCTSNQVKKEEAKPNPLPKLAQTQTQALVPIFSQSVSSMPKADPLRLQLDTLNGVIFVPDPKGKVSAYRGKERLWTTRVTKHRLTAGTVAGEGIVVVGNIKGELIALDQQTGQQKWKAQLTGAVLSPSLIYQGRVTTIANDGTVFAHDAETGQQVWTYKMPTIQFSLRGQPSPVMLDDRTVVVASANGYVYGIDVISGVPRFQRRVAVSEGRSDIQRLIDIDGDPVVSGQYLVTVSYQGQVTVTDLTNLSVVWNQDASSNKRPAVYDNKVFVAQADGKLTAYDLGTGSKLWESDVLLNRQLSNPVMLGKDLVVGDLDGVIHLINPDSGQLIGRAKTRGEVSSLRVVDGHLYTSTRKGALTIWEVR,failed
5,MDILKTLQKHLGDVETSDFTTNAIEKSQQIAKFSRDMKNINESVGALQVLQIACKKLFNKSMGLEDKDALQASIIKQELREIVENCQFLASPLFDTQLNIAINDEIFSMIVVNPLDLLENVGEFQAYLEEKLNEIKELLGYLSESLSNPKAFMPSFSNQSLKDLLSDNLRA,failed
6,MDISVIDATKVNTETGLHIGESNAPVKMIEFINVRCPYCRKWFEESEELLAQSVKSGKVERIIKLFDKEKESLQRGNVMHHYIDYSAPEQALSALHKMFATQDEWGNLTLEEVATYAEKNLGLKEQKDATLVSAVIAEANAAHIQFVPTIIIGEYIFDESVTEEELRGYIEK,not failed
7,MDKILFDIALILIFTKIGSLISIHFKMPGVLGELIAGVILGPFILNLIQANADIKLLSDLGVVFLMFLAGIETNLDELKKAGKSSFLIALGGIIIPLIVGTLSAYMFFSNFYENLFVGVILTATSVSISVQTLTELGKLNTRSGINILGAAIIDDVLGLILITVVLAISGGTKSHGSSIFMTFIYIGIFCLVSLLAIAFLPKPIDKLTQKFKPQKGLAIFSIAAALICAFTAEKLGIAAITGAYICGLVLSPITHKEYIEKRVKIISTSFLSPIFFASVGISASVKGLNFEVLLITLIMFIIAVIGKILGCSASALTLKFKKSEALQIGVGMVSRGEVAIITANIGLQAKIISEEIFLPTLIVVILTTVITPILLKIVFSHKTQKLIDKETLT,failed
8,MDKQSERNESKLFISNMVESAIRIGLIFVLLMFTYDIIRPFILPVIWGAIIAVALLPLTKKLQRAYGGRRGLAATTIVLLGIALLVTPLVMVSGSIVDGATHALDVLQNGQVKIPGPKASVADWPLVGDKLYEVWTLFATNLEQAIQTFMPQIKSALTSLLGMVGGVLGSLLLSILSLAIAAGFMTYSESLASGLQTIAIRTAGENAKSWTTLIAATIKSVLLGVVGVAAIQALLIGAGFFVFGVPAAGLLTLILMILCIAQLPALLAVLPVIGYMYMTQDSTTATMFTVWAVVGALSENLLKPMFMGRGVDVPMPVILLGAIGGMLFYGIVGLFLGAVILAIWYELFVWWLSIEKAQQQEEMAELKEEEEQTESGHGAGI,not failed
9,MDKVILITGASGGIGEGIARELGRRCENIVGCTPPGPYRGHCHGDSTQEVPPWRRCWTPTVTPWQPLQAAVDTWGRIDVLVNNAGVMPLSACRSGGRVGAHDRREHQGRALGSGPYCQSWRHSVAGRSSISARSALSVVPTAAVYCATKFAVRAISDTAPGEYQYPRHLRQSRRRRKRTCEPSPTRRPWRRWTPIAPSRFSLDIARAVRQVIEAPQSVDTTEITITDRIGQL,not failed
10,MDLAGQGQYGQVYLAVNRESGDLVAIKVLSERQLLTRGFLRELNFLLTLQHPHVVGCQAIDYIRVHHSPQVSRSLVMDYCAGGTLRSLLEQEQALPLTTALRLTLDILSALAYAHHRGILHCDLKPENILLEVTATGWQAKVSDFGVARLIEDVKGSGQTGSPAYMAPERFYGQTMPASDLYAVGILLYEMIVGDRPFHGTPAELMAAHLSRPYTLPEGLPFLVRSIIAKALDKLPQRRYKSAAEMTMAVQLALEVIEAEHHQQPLLFSRSPAAVWLGEPQGFALPRLPQQVASTATGFYGVVGDRLWAWQARETIPEATAQWPLPPLPIQLYGSEVSAWLRINALPPQLFCIHDQLIPLDGHLPSTLNPLTIDARGYWWAETQIDSAAAELQLHVQLINGQGRRTLRCQWHGRTFVDTLLLNRRYGAVISRSQDPETAHPITHFQLFDRRGHWRLYTPLPAHLTLLTPAHHQPWQVAAFEDHPQQPLLVLLHLRPWRIQRLGLRFRPQFLCATPWGYVVAGRHSLNLVTHSGEIVGTAESEQEIDGLGFTGDRHLWLIRRQGSGCVIQTWDITTWDIHLIL,failed
11,MDLEEQKKAVIEKLIREGYIKSKRVIDALLKVPREEFLPEHLKEYAYVDTPLEIGYGQTISAIHMVGMMCELLDLKPGMKVLEIGTGCGYHAAVTAEIVGEDGLVVSIERIPELAEKAERTLRKLGYDNVIVIVGDGTLGYEPLAPYDRIYTTAAGPKIPEPLIRQLKDGGKLLMPVGRYLQRLVLAEKRGDEIIIKDCGPVAFVPLVGKEGFQG,not failed
12,MDLEINKGIGRNVEFKGLESQYLFIFCGGLLAVFVVFVILYMAGVNQWVCIGFGVAAATLLVWLTFRLNARYGTHGLMKAAARRRHPRYVVNRLKIPRLFTFKHWQE,failed
13,MDLFDTPLAPLQVLDDAEGGVRYWPQLLAPAVAQAAFAALRDGADWQRHQRTMYDRVVDVPRLLASYRLDAPLPPGLPLQLLLAAVQAQLPAPYNAVGLNLYRDGRDSVAMHHDKLHTLLAPHPIALLSLGTPRRMQLRAKQGATRAITLELAPGSLLAMSHASQLTHEHGIPKTTRALGERISVVFRVRPPARMAAGQHGPHWEALTQTDLEHHHHHH,not failed
14,MDLFNLLDGITFWHWLAFGFVLLAVELLGTAGYFLWLGLSALLVGALLAVLPFGWQLQWLSFATFSLLTTWLWWRRQWSRDKQDDQTRDLNQKYKQLIGRSVILEEDFSIGLNRIRIADTTWSAQCEQNIRAGTRVKIVAIDGIILIVEPISE,failed
15,MDLFSNLALGFQVAASPTNLLLCLTGALVGTLIGVLPGIGTIATVAMLLPITFGLPPVGALIMLAGIYYGAQYGGSTTSILVNIPGEATSVVTTLDGFQMAKQGRAGPALAIAAIGSFAAGCFATVLIALVGEPLTRLALEFGPAEYFSLMVLGLVFAVVLARGSVLKAVAMIVLGLLLSTVGSDIETGVSRMTFDVPELADGLGFATVAMGVFGFAEIIRNLDFGAATDRELVQQKITGLMPTRKDLRDAAPAIGRGTLLGSLLGILPGGGAVIASFAAYTLEKKIARDPKRFGRGAIEGVAAPESANNAAAQTSFIPLLTLGIPPNAVMALMVGAMTIHNIVPGPQVMKNQPELVWGMIASMWIGNLMLLVINLPLVGIWVRLLRVPYRLMFPSIVVFCCIGIYSVNNAPVDVVLAGAFGLIGYWLVKHDFEPAPLLLGMVLGPLMEDNLRRALLISRGDATAFVTRPLSASLLVVAAGLLILSVLPMLRRKRDEVFVESEG,failed
